Drawing on publication PMC12700559, “Structural basis for simvastatin-induced skeletal muscle weakness associated with type 1 ryanodine receptor T4709M mutation” (The Journal of Clinical Investigation, 2025), this text covers stoichiometry N for one substance.

The assay addresses type 1 ryanodine receptor (RyR1), endogenous channel from mouse skeletal muscle (mouse (endogenous in mouse skeletal muscle)) (UniProt E9PZQ0). In words: cryo-EM structure; endogenous RyR1 purified from mouse skeletal muscle, ~15 uM protomer, in CHAPS/DOPC buffer; with 5 mM EGTA only or with 10 mM ATP, 5 mM caffeine, 30 uM free Ca2+, with or without 10 mM simvastatin lactone; C4 symmetry imposed.

Sequence of type 1 ryanodine receptor (RyR1), endogenous channel from mouse skeletal muscle, E9PZQ0 1-5035 (natural protein) (E9PZQ0 whole entry): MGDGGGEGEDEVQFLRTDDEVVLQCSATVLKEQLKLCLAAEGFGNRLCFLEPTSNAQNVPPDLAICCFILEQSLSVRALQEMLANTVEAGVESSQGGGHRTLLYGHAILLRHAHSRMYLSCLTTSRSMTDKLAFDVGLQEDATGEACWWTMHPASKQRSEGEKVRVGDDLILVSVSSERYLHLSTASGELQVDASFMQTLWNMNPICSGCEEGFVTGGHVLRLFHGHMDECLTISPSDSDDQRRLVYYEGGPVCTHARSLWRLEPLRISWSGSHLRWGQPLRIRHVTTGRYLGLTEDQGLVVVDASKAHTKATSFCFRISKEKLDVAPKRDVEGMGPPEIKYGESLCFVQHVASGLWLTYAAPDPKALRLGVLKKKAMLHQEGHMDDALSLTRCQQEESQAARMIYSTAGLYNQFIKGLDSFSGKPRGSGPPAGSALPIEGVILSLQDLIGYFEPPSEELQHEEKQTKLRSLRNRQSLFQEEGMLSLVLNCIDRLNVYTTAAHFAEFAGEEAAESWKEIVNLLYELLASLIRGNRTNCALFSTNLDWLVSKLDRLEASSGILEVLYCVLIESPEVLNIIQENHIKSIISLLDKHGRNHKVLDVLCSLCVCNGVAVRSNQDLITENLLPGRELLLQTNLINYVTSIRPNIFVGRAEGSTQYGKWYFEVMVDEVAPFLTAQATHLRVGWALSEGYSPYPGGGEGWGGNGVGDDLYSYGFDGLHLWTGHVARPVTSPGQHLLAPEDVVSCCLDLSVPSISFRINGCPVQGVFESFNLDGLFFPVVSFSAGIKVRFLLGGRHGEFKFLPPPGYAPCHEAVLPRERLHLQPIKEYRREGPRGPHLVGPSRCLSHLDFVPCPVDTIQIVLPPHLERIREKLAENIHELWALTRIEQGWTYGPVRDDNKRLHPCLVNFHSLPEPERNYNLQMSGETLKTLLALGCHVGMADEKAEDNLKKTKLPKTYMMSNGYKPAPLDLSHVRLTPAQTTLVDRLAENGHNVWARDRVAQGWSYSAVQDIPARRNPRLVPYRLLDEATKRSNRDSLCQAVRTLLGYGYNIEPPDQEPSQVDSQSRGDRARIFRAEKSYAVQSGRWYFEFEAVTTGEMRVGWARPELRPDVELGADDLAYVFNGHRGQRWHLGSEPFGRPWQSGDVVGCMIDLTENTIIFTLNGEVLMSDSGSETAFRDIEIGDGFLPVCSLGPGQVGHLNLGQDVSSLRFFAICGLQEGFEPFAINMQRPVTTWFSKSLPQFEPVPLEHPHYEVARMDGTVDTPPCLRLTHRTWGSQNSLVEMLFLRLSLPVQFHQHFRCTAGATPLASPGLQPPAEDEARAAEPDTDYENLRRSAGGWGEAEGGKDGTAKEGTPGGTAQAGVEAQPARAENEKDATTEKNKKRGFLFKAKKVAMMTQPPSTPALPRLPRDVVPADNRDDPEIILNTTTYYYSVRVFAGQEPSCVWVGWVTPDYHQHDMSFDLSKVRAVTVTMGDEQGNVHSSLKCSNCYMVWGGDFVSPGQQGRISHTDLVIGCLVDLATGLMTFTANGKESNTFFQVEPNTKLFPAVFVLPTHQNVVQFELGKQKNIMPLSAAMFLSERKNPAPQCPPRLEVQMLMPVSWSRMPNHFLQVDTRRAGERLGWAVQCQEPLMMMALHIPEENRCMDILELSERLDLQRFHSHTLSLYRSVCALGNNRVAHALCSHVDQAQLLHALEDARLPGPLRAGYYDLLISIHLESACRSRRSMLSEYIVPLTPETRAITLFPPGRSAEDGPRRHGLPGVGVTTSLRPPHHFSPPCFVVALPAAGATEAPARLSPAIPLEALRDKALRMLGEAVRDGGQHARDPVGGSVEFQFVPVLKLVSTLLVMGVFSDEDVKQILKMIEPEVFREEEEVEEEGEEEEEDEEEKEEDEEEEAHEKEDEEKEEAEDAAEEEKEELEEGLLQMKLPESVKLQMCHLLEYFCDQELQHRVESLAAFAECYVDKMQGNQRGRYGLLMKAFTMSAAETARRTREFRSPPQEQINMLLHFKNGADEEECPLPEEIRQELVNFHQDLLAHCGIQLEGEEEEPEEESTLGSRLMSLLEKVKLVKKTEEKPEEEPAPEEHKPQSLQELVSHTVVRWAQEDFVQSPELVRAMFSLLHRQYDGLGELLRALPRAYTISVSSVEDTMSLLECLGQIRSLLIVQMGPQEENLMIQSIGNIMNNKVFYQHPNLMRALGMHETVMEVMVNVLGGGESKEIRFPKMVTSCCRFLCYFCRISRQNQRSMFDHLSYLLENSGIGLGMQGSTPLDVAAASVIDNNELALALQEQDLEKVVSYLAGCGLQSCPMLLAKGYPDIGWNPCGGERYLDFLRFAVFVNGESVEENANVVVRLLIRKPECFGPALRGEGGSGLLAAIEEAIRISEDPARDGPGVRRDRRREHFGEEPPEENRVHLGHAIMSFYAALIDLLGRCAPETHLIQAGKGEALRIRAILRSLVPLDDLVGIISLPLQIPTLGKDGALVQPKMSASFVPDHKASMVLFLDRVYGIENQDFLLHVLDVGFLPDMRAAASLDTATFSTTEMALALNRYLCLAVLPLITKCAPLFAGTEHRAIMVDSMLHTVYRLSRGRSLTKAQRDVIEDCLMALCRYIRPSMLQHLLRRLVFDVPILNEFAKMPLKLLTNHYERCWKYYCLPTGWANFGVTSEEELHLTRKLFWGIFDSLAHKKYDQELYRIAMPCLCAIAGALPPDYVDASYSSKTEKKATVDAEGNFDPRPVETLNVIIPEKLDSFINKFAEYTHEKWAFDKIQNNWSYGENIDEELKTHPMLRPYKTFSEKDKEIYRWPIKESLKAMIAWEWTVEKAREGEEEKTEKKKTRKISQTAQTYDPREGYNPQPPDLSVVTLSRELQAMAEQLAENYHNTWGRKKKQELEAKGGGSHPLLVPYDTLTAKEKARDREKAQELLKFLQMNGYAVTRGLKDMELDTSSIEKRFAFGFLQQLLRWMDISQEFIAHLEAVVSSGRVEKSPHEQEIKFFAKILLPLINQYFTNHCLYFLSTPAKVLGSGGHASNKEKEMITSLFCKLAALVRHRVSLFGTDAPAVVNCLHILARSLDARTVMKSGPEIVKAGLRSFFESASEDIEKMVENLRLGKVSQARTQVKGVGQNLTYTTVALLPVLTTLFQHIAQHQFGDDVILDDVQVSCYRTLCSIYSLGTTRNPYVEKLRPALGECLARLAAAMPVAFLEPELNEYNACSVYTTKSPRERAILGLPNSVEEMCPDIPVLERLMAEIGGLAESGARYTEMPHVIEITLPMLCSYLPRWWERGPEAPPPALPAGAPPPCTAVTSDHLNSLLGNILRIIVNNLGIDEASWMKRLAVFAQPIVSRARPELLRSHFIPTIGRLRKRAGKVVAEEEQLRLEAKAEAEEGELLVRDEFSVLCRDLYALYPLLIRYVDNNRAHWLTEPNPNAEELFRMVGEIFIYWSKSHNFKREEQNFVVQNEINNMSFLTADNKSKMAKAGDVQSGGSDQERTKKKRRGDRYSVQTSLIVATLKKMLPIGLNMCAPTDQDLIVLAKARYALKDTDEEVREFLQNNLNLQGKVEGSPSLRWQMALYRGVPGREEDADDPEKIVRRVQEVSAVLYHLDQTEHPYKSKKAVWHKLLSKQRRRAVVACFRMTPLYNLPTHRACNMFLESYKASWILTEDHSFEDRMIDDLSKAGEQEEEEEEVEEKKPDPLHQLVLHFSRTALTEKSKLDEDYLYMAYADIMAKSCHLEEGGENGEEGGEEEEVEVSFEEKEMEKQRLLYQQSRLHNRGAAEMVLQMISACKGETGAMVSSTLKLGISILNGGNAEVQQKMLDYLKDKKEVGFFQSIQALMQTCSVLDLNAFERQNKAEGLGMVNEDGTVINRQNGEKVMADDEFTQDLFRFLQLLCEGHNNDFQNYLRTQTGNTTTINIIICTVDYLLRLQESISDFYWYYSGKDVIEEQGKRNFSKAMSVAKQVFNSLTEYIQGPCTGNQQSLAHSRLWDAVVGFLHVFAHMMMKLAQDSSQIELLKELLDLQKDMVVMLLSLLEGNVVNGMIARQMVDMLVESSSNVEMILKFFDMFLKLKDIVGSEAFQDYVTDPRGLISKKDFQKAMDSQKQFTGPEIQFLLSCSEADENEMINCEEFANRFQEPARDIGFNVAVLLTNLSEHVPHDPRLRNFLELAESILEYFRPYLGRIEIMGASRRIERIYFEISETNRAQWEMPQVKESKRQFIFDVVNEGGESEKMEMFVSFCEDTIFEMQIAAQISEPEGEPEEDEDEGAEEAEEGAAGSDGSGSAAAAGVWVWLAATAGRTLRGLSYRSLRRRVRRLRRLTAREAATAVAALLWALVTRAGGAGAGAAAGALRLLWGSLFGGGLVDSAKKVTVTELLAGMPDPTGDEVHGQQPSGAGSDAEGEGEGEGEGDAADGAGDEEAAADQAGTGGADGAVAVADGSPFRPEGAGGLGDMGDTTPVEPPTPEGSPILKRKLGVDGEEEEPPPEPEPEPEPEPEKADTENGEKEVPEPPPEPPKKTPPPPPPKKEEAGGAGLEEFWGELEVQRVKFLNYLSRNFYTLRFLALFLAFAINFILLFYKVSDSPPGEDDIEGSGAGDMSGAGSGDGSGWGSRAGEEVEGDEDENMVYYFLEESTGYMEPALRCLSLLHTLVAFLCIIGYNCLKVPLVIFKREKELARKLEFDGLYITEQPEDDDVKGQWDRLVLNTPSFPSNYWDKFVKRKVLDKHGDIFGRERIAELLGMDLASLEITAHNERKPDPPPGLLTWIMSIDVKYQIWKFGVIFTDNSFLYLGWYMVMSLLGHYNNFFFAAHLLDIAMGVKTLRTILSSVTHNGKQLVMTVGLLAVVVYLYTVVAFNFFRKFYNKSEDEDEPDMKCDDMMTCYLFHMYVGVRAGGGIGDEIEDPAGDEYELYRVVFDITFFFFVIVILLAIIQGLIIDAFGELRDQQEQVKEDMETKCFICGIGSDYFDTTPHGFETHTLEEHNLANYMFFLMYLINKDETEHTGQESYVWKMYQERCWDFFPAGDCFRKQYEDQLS

The term stoichiometry N denotes the number of molecules, sites or subunits per partner or assembly. For the substance “type 1 ryanodine receptor (RyR1), endogenous channel from mouse skeletal muscle, E9PZQ0 1-5035 (natural protein)”, the stoichiometry N was found to be 4.
